The text below walks through data of patent publication US20020082396A1 (published 2002).

This test deals with T1, recombinant human IL-8 (Amersham) (human, UniProt P10145 28-99, limits assumed).
T1 construct: In the ELISA it is captured by goat anti-human IL-8 polyclonal antibody on the plate; In the neutrophil assay it is 125I-labelled and non-labelled IL-8 at 4 ng/ml each; also called human interleukin-8
T1 sequence (looked up): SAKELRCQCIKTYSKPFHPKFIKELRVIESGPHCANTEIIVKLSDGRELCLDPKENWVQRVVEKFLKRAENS
Kind of test: ELISA: human IL-8 captured by goat anti-human IL-8 polyclonal antibody, COS culture medium serially diluted, AP-labelled anti-human IgG. Background: An ELISA detects its analyte on a solid surface through an enzyme-linked reagent.

B1: antibody of the chimeric WS-4 L chain and version a of the reshaped human WS-4 H chain (chL/RVHa) (antibody, V domains shown)
VH: EVQLLESGGGLVQPGGSLRLSCAASGFTFSDYYLSWVRQAQGKGLELVGLIRNKANGYTREYSASVKGRLTISREDSKNTLYLQMSSLKTEDLAVYYCARENYRYDVELAYWGQGTLVTVSS
VL: DIQMTQSPASLSASVGETVTITCRASEIIYSYLAWYQQKQGKSPQLLVYNAKTLADGVSSRFSGSGSGTQFSLRISSLQPEDFGSYYCQHHFGFPRTFGGGTKLELK
notes: Human C kappa and human C gamma 1 regions (HEF-chWS4L-gk with HEF-RVHa-gg1), tested as COS cell culture medium
Consider B1, for which the binding result is given as “no binding”.

B2: reshaped human WS-4 antibody RVLa/RVHc (antibody, V domains shown)
VH: EVQLLESGGGLVQPGGSLRLSCAASGFTFSDYYLSWVRQAPGKGLELVGLIRNKANGYTREYSASVKGRLTISREDSKNTLYLQMSSLKTEDLAVYYCARENYRYDVELAYWGQGTLVTVSS
VL: DIQMTQSPSSLSASVGDRVTITCRASEIIYSYLAWYQQKPGKAPKLLIYNAKTLADGVPSRFSGSGSGTDFTFTISSLQPEDIATYYCQHHFGFPRTFGQGTKVEIK
notes: Human C kappa and human C gamma 1 regions, tested as COS cell culture medium; also called antibody having H chain version c
As to B2, the binding result is recorded as “no binding”.
